In the nanobody polyreactivity screen of Harvey et al. (2022):

assay: yeast display, Sf9 membrane polyspecificity reagent, FACS + sequencing; frameworks hold sequencing errors
In short: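 Nanobodies from a synthetic yeast display library (Saccharomyces cerevisiae BJ5465), induced 36–48 hours with galactose, were stained 1 hour at 4 °C with 10% biotinylated, detergent-solubilized Sf9 membrane reagent, enriched on streptavidin microbeads, then FACS-sorted. Anti-HA (expression) and streptavidin (reagent binding) fluorescence set low and high (top ~1%) gates. Polyreactivity labels come from the gate of origin. Genes were colony-PCR amplified, MiSeq 2 × 250 sequenced and filtered by CDR length.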

Q: For “QVQLVESGGGLLQAGGSLRLSCAASGNIFGWYAMGWYRQAPGKERELVAAISSGGRTNYADSVKGRFTISRDNAKNTVYLQMNSLKPEDTAVYYCATPLQQLYGYWGQGTQVSVSS”, which “polyreactivity (PSR sort gate)” value is on record?
A: low polyreactivity

Q: For “QVQLVESGGGLLQAGGSLRLSCAASGPTFAYYAMGWYRQATGKERELVAAIDSSGGSTYYADSVKGRFTISRDNSNNSVYLQMNSLKPEDTAVNYCAASYPYDRYDQGGFGYWGQGTQVTVSS”, which “polyreactivity (PSR sort gate)” value is on record?
A: low polyreactivity

Q: With “QVQLVESGGGLLQAGGSLRLSCAASGRIFGGYDMGWYRQAPGKERELVASISYSGGTTYYADSVKGRFTISRDNAKNTVYLQMNSLKPEDSAVYYCAALSQHNDSGYDYWGQGTQVTVSS” as the sequence, how does the “polyreactivity (PSR sort gate)” value read?
A: high polyreactivity

Q: For “QVQLVESGGGLLQAGGSLRLSCAASGRIFSFNTMGWYRQAPGKERELVAAISRGGSTYYADSVKGRFTNSRDNAKNTVYLQMNSMKPEDTAVYYCNALLPPGSRKYNYWGQGSQVTVSS”, which “polyreactivity (PSR sort gate)” value is on record?
A: high polyreactivity

Q: With “QVQLVESGGGLLQAGGSLRLSCAASGRTFETNAMGWNRQAPGKQRELVASINWSGGSTYYADSVKGRFTISRDNAKNSVYLQMNSLKPEDTAVYYCAADHSYWDWWSYYYWGQGTQVTVSW” as the sequence, how does the “polyreactivity (PSR sort gate)” value read?
A: low polyreactivity

Q: Which “polyreactivity (PSR sort gate)” value does the source give for “QVQLVESGGGLLQAGGSLRLSCAASGRTFNYYAMGWYRQAPWKESELVADIRGRGGSTYYADSVKGRFTISRDNAKITVYLQMNSLKPEDKAVYYCARRSPYPYSIYYYWGQGTQVTVSS” here?
A: high polyreactivity

Q: Which “polyreactivity (PSR sort gate)” value does the source give for “QVQLVESGGGLLQAGGSLRLSCAASGRTFRYYAMGWYRQAPGKERELVAAISSGGSSTYYADSVKGRFTISRDNAKNTVYLQMNSLKPEDTAVYYCAAGYYPFNYWGQGTQVTVSS” here?
A: high polyreactivity

Q: Which “polyreactivity (PSR sort gate)” value does the source give for “QVQLVESGGGLLQAGGSLRLSCAASGRTFRYYTMGWYRQAPGKEREFVAAISSTGRTYYGDSVKGRFTISRDNAKNTVYLQMNSLKPEDTAVYYCAATFIQVVVNVQLYDYDYWGQGTQVTVSS” here?
A: low polyreactivity

Q: Which “polyreactivity (PSR sort gate)” value does the source give for “QVQLVESGGGLLQAGGSLRLSCAASGRTFSVNAMGWYRQAPGKERELVATITWSGSSTSYADSVKGRFTISRDNAKNTVDLQMNSLKPEDTAVYYCAADLWTLIYLTDTYGHWGQATQVTVSS” here?
A: low polyreactivity

Q: Which “polyreactivity (PSR sort gate)” value does the source give for “QVQLVESGGGLLQAGGSLRLSCAASGRTSDYYAMGWYRQAPGKERELVAAISRSGGRTYYADSVKGRFTISRDNAKNSVYFQMNSLQPEDTAVYYCNAGGTPYVLDEYWGQGTQVTVSS” here?
A: high polyreactivity

Q: Which “polyreactivity (PSR sort gate)” value does the source give for “QVQLVESGGGLLQAGGSLRLSCAASGRTSGRYAMGWYRQAPGKERELVAAISSGGRTSYADSVKGRFTISRDNAQNTVDLQMISLKPEDTAVYYCAAVFVLARAYNYWGQGTLVTVSS” here?
A: high polyreactivity

Q: Which “polyreactivity (PSR sort gate)” value does the source give for “QVQLVESGGGLLQAGGSLRLSCAASGSIFPDYAKGSYRQAPGKERELVAAITGIDGSTYADSVKGRFTISRVHAKNSVYLQINRLKPEDTAVYYCNTESIRYVPWFRFDYWGQGTQVTVSS” here?
A: low polyreactivity

Q: With “QVQLVESGGGLLQAGGSLRLSCAASGSIFRRYAMGWYRQATGKERELVAAISRSGSSTYADSVKGRFTISRDNAKNTVYLQMNSLKPEDTAVYYCAASYAFLYYGYDSWGHGTQVTVSS” as the sequence, how does the “polyreactivity (PSR sort gate)” value read?
A: low polyreactivity

Q: Which “polyreactivity (PSR sort gate)” value does the source give for “QVQLVESGGGLLQAGGSLRLSCAASGSIFSGYAMGWYRQAPGKERELVAAISGSGGSTFYADSVKGRFTISRDNAKNTVYLQMNSLKPEDTAVYYCAARRIAPYGRYDYWGQGTQVTVSS” here?
A: low polyreactivity

Q: With “QVQLVESGGGLLQAGGSLRLSCAASGSTFDIYAMGWYRQAPGKERELVAVISGGDGSTYYADSVKGRFTISRENAKNTVYLQMNSLKPEDTAVYYCAADDISPGYWDGEYDCWGQGTQVTVSS” as the sequence, how does the “polyreactivity (PSR sort gate)” value read?
A: low polyreactivity

Q: For “QVQLVESGGGLLQAGGSLRLSCAASGSTFDYYVMGWYRQAPGKERELVAAISHNAGSTYYADSVKGRFTISRDNAKNTVYLQMNSLKPEDTAVYYCAAPDYRNGVRYPLDYWGQGTQVTVSS”, which “polyreactivity (PSR sort gate)” value is on record?
A: low polyreactivity

Q: With “QVQLVESGGGLLQAGGSLRLSCAASGSTFSSYAMGWYRPAPGKERELVAAITSSGGSTYYADSVKGRFTISRDNAKNTVYLKLNSLKPEDTAVYYCAAADVIFWLYYYWGQGTQVTVSS” as the sequence, how does the “polyreactivity (PSR sort gate)” value read?
A: low polyreactivity

Q: For “QVQLVESGGGLLQAGGSLRLSCAASGSTFYPYAMRWYRQAPGKERELVAAISSGGSTSYADSVKGRFTISRDNAKNTVYLQMNCLKPEDTAVYYCNGSSPGAVPVYDYDYWGQGTQVTVSS”, which “polyreactivity (PSR sort gate)” value is on record?
A: low polyreactivity

Q: Which “polyreactivity (PSR sort gate)” value does the source give for “QVQLVESGGGLLQAGGSLRLSCAASGTIFAYYAMGWYRPAPEKERELVARITYSTDRTYYADSVKGRFTISRDNAKNTVYLQMNRLKPEDTAVYYCAVETWWGFKRYKFDYWGLGTQVTVSS” here?
A: low polyreactivity

Q: With “QVQLVESGGGLLQAGGSLRLSCASSGSTFGGNAMGRYRQAPGKERELVAAITVGGDSTYYADSVKGRFTISRDNAKNTVYLQMNSLKPEDTAVYYCNASNVYFWFVTLEFDYWGQGTQVTVSS” as the sequence, how does the “polyreactivity (PSR sort gate)” value read?
A: low polyreactivity

Q: For “QVQLVESGGGLLQAGGSLRLSSAASGFIFNWYAMGGYRQAPGKERELVAAITSGGSTNYADSVKGRFTISRDNAKNTVYLQMNSLKPEDTAVYYCAARHWRRYGYCGQGTQVTVSS”, which “polyreactivity (PSR sort gate)” value is on record?
A: high polyreactivity

Q: Which “polyreactivity (PSR sort gate)” value does the source give for “QVQLVESGGGLLQAGGSLRLSSAASGRTFSTNAMGWYRQAPGKERELVAAITSRGGSTYYADSVKGRFTISRDNAKNTVYLQMNSLKPEDTAVYYCAAGWLPKYGYWGQGTQVTVSS” here?
A: low polyreactivity

Q: For “QVQLVESGGGLLQAGGSLRLSSAASGVYAMGWYRQAPGKERELVAAISRRGGSTYYADSVKGRFTISRDNAKNTVYLQMKSLNPADTAVYYCAADYTSRTRGNRDRLDYWGQGTQVTVSS”, which “polyreactivity (PSR sort gate)” value is on record?
A: high polyreactivity

Q: For “QVQLVESGGGLLQAGRSLRLSCAASGSIIWLYAMGWYRQAPGKERELVAAISWTGTSTNYADSVKGRFTISRDYAKNTVYLQMNSLKPEDTAVYYCAKRWYNQKLFGYEDEYDYWGQGTQVTVSS”, which “polyreactivity (PSR sort gate)” value is on record?
A: low polyreactivity

Q: Which “polyreactivity (PSR sort gate)” value does the source give for “QVQLVESGGGLVEAGGSHRLSCAASGSTFNYYAMGWYRQAPGKERELVASISGGGSTSYADSVKGRFTISRDHAKNTVYLQMNSLNPEHTAVYYCAATPIGQHFPLDYWGPGTQVTVSS” here?
A: low polyreactivity

Q: With “QVQLVESGGGLVEAGGSLRISCAASGSIFGYYAMGWYRQAPGKERELVAAISYSGGSTNYADSVKGRFTISRDTAKNSVSLQMNSLKPEDTAGYAFATSRSRRYVEFYRYDYWGQGPQVTVSS” as the sequence, how does the “polyreactivity (PSR sort gate)” value read?
A: high polyreactivity

Q: For “QVQLVESGGGLVEAGGSLRLSCAASGLTIRWYAMGWYRQAPGKESEVVATISSGGSTNYADSVKGRFTISRDNAKNTVYFQMNSLTPEDTAVYYCNAYFRGYYHATIGMDYWGQGTQVTVSS”, which “polyreactivity (PSR sort gate)” value is on record?
A: high polyreactivity

Q: With “QVQLVESGGGLVEAGGSLRLSCAASGSTFVIYTIGCYRQAPGTQRELVAAISSSGGITYYSDSVKGRFTISRDNAKNTVYLQMNSLKPEDTAVYYCAADSRSAYSPYYYWGQGTQVTVSS” as the sequence, how does the “polyreactivity (PSR sort gate)” value read?
A: high polyreactivity

Q: Which “polyreactivity (PSR sort gate)” value does the source give for “QVQLVESGGGLVEAGGSLRLSSAASGINFKMYAMVWSRQAPGKERELVADITYVGSTKYADSVKGRFTISRDNAKNTFYLQMNSLKPEDTAVYYFNAAQYYWYEYDYWGQGTQVTVSS” here?
A: low polyreactivity

Q: Which “polyreactivity (PSR sort gate)” value does the source give for “QVQLVESGGGLVEAVGSLRLSCAASGINFQGNAMGWSRQAPGKERELVASITAGGDTTYYADSVKGRFTISRDNAKNTVYFQMNSLKPEDTAVYYCATRLYGYWPYGFDYWGQGTQVTVSS” here?
A: low polyreactivity

Q: Which “polyreactivity (PSR sort gate)” value does the source give for “QVQLVESGGGLVHAGCRLRLSCAPSGSILYYNAMGGYRQAPGNERELVAAITSGGSTYADSVKGRFTISRDNAKNTVYLQMYSLKPEDTAVDYCAADLDWSLSVFGTTLEHDDWGQGTQVTVSS” here?
A: low polyreactivity

Q: Which “polyreactivity (PSR sort gate)” value does the source give for “QVQLVESGGGLVHAGCSLRLSCAASGFTFGVYAMGWYRQAPGKERELVAAISTTVGSTYYADSVKGRFTISRDNAKNTFYLQMNSLKPEDTAVYYCAAEYTVYINYYIYEYWGQGTQVTVSS” here?
A: low polyreactivity

Q: With “QVQLVESGGGLVHAGCSLRLSCAASVSTFQVYGLGWYRQAPGKEREMVAAISRSGVRTYYADSVKARFTMSRDNAKNTVYLQMNSLKPEDTAVYYCAKTYQSTTSKSGYYYWGQGTQVTVSS” as the sequence, how does the “polyreactivity (PSR sort gate)” value read?
A: high polyreactivity

Q: With “QVQLVESGGGLVHAGGSHRLSCAASGIIVYVNAMGLYRQAPGKERELVSAITFGGDSTYYADSVKGRFTISRDTAKNTVYLQMNSLKPEDTAVYFCATDGDPAYPELEYWGQGTQVTVSS” as the sequence, how does the “polyreactivity (PSR sort gate)” value read?
A: low polyreactivity

Q: Which “polyreactivity (PSR sort gate)” value does the source give for “QVQLVESGGGLVHAGGSLLLSCSASGRTFDSNAMGWSRQAPGKERELVAAISGSGDTTYYADSVKGRFTISRDNAKNTVYLQMNSLKPEDTAVYYCADDHDSSGSGYEYWGQGTEVTVSS” here?
A: low polyreactivity

Q: Which “polyreactivity (PSR sort gate)” value does the source give for “QVQLVESGGGLVHAGGSLRISCAASGSTFPYYAMGWYRQAPVKERELVAAISRSGGSTYYADSVKGRFTISRDNAKNTVYLQMNRLKPEDTAVYYCNARLARWGSYEYNYWGQGTQVNVSS” here?
A: low polyreactivity

Q: Which “polyreactivity (PSR sort gate)” value does the source give for “QVQLVESGGGLVHAGGSLRISCAPSGLTFLYNAMGWYRQAPGKERELVAAISQSAGSTYYADSVKGRFTISRDNAKNTVYLQMNSLKPEDTAVYYCAAEWDSPDLVIYDYWGQGTQVTVSS” here?
A: low polyreactivity

Q: With “QVQLVESGGGLVHAGGSLRLICASSGFIFWAYAMGWYRQAPGKERELVAAISNNGVSTYYADSVKGRFTISRDIAKNTVYLQMNSLIPEDTAVYYCGATGVRSKRLASQWKLDYWGQGTQVTVST” as the sequence, how does the “polyreactivity (PSR sort gate)” value read?
A: high polyreactivity

Q: With “QVQLVESGGGLVHAGGSLRLSCAAAGSTFYYYAMGWYRQAPGKERELVARISDGDSTNYADSVKGRFTISRDNAKNTVYLQMNSLKPEDTAVYYCAAQHWYLGYGYWGQGTQVTVSS” as the sequence, how does the “polyreactivity (PSR sort gate)” value read?
A: low polyreactivity

Q: Which “polyreactivity (PSR sort gate)” value does the source give for “QVQLVESGGGLVHAGGSLRLSCAACGTTFINYAMGWYRQAPGKVRELVAVITSDDGSTYYADSVKGRFTISRDNAKNTVYLQMNSLKPEDTAVYYCAADYYDQRYRPGPWYDYWGQGTQVTVSS” here?
A: low polyreactivity

Q: For “QVQLVESGGGLVHAGGSLRLSCAASGFIFPWYAMGWSRQAPGKERELVAIISWDTGSTYYADSVKGRFTISRDNAKNTVYLQINRLKPEDSAVYYCVAYVGSTYSAPEYYWGQGTQVTVSS”, which “polyreactivity (PSR sort gate)” value is on record?
A: low polyreactivity

Q: With “QVQLVESGGGLVHAGGSLRLSCAASGFIYPGNAKGWYIQAPGKERELVAAISNSGSRTYYADSVKGRFTISRDHAMNTVYLQMNSLKPEDTAVYYCNADVDNRGWPYDYWGQGTQVNVSS” as the sequence, how does the “polyreactivity (PSR sort gate)” value read?
A: low polyreactivity

Q: For “QVQLVESGGGLVHAGGSLRLSCAASGFTCPYYPMGWYRQAPGKERELVDVISRSGGSTYYADSVKGRFTISRDNAKNTVYLQMNSLKPEDTAVYYCAKRYSLTGGKRTGYYWGQGTQVTVSS”, which “polyreactivity (PSR sort gate)” value is on record?
A: high polyreactivity
